Key:
[1] = biological target: T1, His6-RAD52 (Homo sapiens) (UniProt P43351); experiment: competition (FRET); settings: 8 nM RAD52 on 1 nM Cy3-dT30-Cy5; ssDNA EMSA: 30 mM Tris-acetate pH 7.5, 1 mM DTT, RT, 0.1% glutaraldehyde; FRET: same buffer + 0.1 mg/ml BSA, 25 C; dsDNA EMSA: 30 mM KPi pH 7.4, 1 mM DTT …; scale: nM base pairs for nearly complete ssDNA release
T1 sequence: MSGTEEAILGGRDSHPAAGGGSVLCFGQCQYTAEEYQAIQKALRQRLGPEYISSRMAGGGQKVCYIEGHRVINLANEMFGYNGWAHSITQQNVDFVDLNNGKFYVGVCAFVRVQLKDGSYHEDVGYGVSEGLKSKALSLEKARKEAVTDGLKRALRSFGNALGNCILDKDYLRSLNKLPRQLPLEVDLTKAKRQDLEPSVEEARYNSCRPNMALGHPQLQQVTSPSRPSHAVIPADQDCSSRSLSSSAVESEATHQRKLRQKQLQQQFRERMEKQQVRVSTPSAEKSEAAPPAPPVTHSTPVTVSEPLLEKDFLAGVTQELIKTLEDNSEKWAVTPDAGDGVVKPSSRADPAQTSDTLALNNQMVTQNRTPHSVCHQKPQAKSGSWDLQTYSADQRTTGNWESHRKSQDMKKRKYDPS

[2] = biological target: His6-RAD52;DSS1 (Homo sapiens;Homo sapiens) (UniProt P43351+P60896); experiment: competition (FRET); settings: 8 nM RAD52-DSS1 on 1 nM Cy3-dT30-Cy5; ssDNA EMSA: 30 mM Tris-acetate pH 7.5, 1 mM DTT, RT, 0.1% glutaraldehyde; FRET: same buffer + 0.1 mg/ml BSA, 25 C; dsDNA EMSA: 30 mM KPi pH 7.4, 1 mM DTT …; scale: nM base pairs for almost complete ssDNA release
[3] = biological target: RAD52 (human) (UniProt P43351)
[4] = biological target: RAD52 (human) (UniProt P43351); remark: listed apart in the source
[5] = biological target: RAD52 (human) (UniProt P43351); remark: listed apart in the source

Chain of His6-RAD52;DSS1 (Homo sapiens;Homo sapiens) (P60896 whole entry, one chain of several): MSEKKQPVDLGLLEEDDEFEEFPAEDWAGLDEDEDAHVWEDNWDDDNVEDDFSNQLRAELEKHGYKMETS

Substance	binding signal [1]	binding signal [2]	FRET-based annealing of complementary 28-mers, 8 nM RAD52 with 40 nM DSS1, no RPA: initial rate (RAD52 alone 5.2 bp/s) [3] [bp/s]	gel-based single-strand annealing of 3'-overhang substrates, increasing RAD52 or pre-formed RAD52-DSS1 (1:1): maximum yield (optimum at 120 nM complex against 480 nM RAD52 alone) [4] [%]	D-loop formation with a 90-mer ssDNA and supercoiled plasmid, RAD52 or RAD52-DSS1 (1:1) at 150-3200 nM: yield (10% for RAD52 alone at 800 nM) [5] [%]
PhiX174 RF I DNA, ApaLI-linearized	200	50			
DSS1 (natural protein)			17.5	65	20

Reference: PMC6954417
